{"source": "paper PMC4501363", "biological_target": "actin-related protein 1 (human (endogenous in HEK293T)) (UniProt P61163)", "assay": "co-sedimentation", "data": [{"substance": "actin-related protein 1 (from UniProt P61163 1-376) (natural protein)", "values": [{"measurement": "percent of Arp1 in the monomer/dimer pool", "value": "< 5", "unit": "%"}]}]}
